US20130052729A1, “METHOD FOR PREPARING INDUCED PARAXIAL MESODERM PROGENITOR (IPAM) CELLS AND THEIR USE” (priority 2011, published 2013)
Entries after “also recorded” stand apart in the source; their conditions may differ.

Legend:
Msgn1RepV mES cells = assay: iPAM induction in Msgn1RepV reporter mES cells (YFP+ cells, flow cytometry); format: cell-based, mouse; settings: for effect on number of YFP+ cells: recombinant protein, 15% FBS, 4 days of differentiation
Method: ES cells were trypsinized and plated at various densities in gelatin coated, feeder-free, 24 well plates directly in serum-based (15% FBS) or serum-replacement (15% KSR, Invitrogen) conditions supplemented with factors, and DMSO (Sigma). Recombinant proteins were obtained commercially (R&D) and stock solutions were prepared according to manufacturer's recommendation. The GSK-3β inhibitor CHIR99021 was purchased from Stemgent and prepared according to the manufacturer's recommendations. Fluorescent reporter analysis and image acquisition were done on a Zeiss Axiovert system.
Cell cultures were dissociated by trypsinization, analyzed by flow cytometry on a FACScalibur (BD Biosciences) according to YFP expression. Data were further analyzed with MoFlo software (Beckman Coulter) and FlowJo software.
In order to follow the differentiation of ES cells toward the first stage of paraxial mesoderm differentiation (ie presomitic fate), which represents the first step of skeletal muscle differentiation after acquisition of a mesodermal identity, we generated a transgenic mouse ES cell line harboring a fluorescent reporter specifically expressed in paraxial mesoderm progenitors. We used the promoter from the mouse Msgn1, a gene specific for the presomitic mesoderm, to drive the expression of Venus (a modified YFP).
In order to optimize the differentiation conditions for paraxial mesoderm progenitors, we developed a manual screening assay, testing candidate growth factors and drugs interfering with various signaling pathways on ES cells. The Msgn1RepV reporter cells were plated at a defined density in 24-well plates coated with gelatin (0.1%). Two basal culture media were selected: a DMEM based medium containing 15% fetal bovine serum (FBS, high serum) and a defined serum-free medium containing 15% KSR (Invitrogen/Gibco). These basal media were supplemented with candidate factors on day 0 of differentiation. Control and experimental conditions were cultured in parallel. Cells were left to differentiate for three to four days with medium changed on day 2 or 3. Cell cultures were analyzed on day 3 and 4 of differentiation visually and by flow cytometry for YFP+ population quantification.

mouse ES cells = assay: Sequential differentiation of iPAM cells into paraxial mesoderm derivatives (staining, qRT-PCR); format: cell-based; settings: DMSO 0.5%
Method: From day 0 to day 4, mouse ES cells were differentiated in presence of Rspo3, followed by 15% FBS medium until day 18. Cell types were identified by tissue-specific antibody staining, namely Muscle (Desmin, green), Endothelium (PECAM1/CD31, green) and Cartilage (Alcian Blue).
ES cells were cultured for 4 days in FBS15%, DMSO 0.5% and 10 ng/ml Rspo3 and then switched to FBS 15% or FBS 1% or FBS1% plus […] (Shh) and Retinoic acid (F1ShhRA) or plus Shh, Noggin and LiCl (F1SNLi). Cells were harvested the next day and analyzed by qRT-PCR for the dermal marker Dermol (A) and the muscle marker Myf5 (B). Graphs show fold enrichment.
Total RNA was extracted from ES cell cultures using a Trizol reagent (Invitrogen) or with the Rnaeasy plus mini-kit (Qiagen). RT-PCR was performed on 5 ng total RNA using QuantiFast SYBR Green RT-PCR Kit (Qiagen), appropriate primers and run on a LightCycler 480II (Roche). GAPDH was used as the internal control. […]
For example, between day0 to day4, ES cells were exposed to optimized differentiating conditions (ie. R-spondin3 10 ng/mL, DMSO 0.5%, in 15% FBS basal medium). […] At day 18, cell cultures were fixed and analyzed by tissue specific histochemical staining or immunofluorescence (FIG. 8). […] Cells were harvested the next day and analyzed by qRT-PCR for the dermal marker Dermo 1 and the muscle marker Myf5 (FIG. 9).

canonical Wnt signaling = assay: BAT-luc luciferase reporter for canonical Wnt signaling in transfected ES cells; format: cell-based, mouse; settings: Rspo3 10 ng/mL, low serum (1% FBS) medium
HUES1 cells = assay: qRT-PCR of paraxial mesoderm progenitor markers in differentiating human ES cells; format: cell-based; settings: 3 to 10 days of culture in 15% FBS containing medium
Method: Comparison of the expression of paraxial mesoderm progenitor markers Brachyury (A), PDGFRa (B), Tbx6 (C), Msgn1 (D) measured by Q RT-PCR in HUES1 undifferentiated or cultured in 15% FBS containing medium with or without Rspo3 for up to 10 days. Relative expression to undifferentiated HUES1 cells is shown (fold induction)
Total RNA was extracted from ES cell cultures using a Trizol reagent (Invitrogen) or with the Rnaeasy plus mini-kit (Qiagen). RT-PCR was performed on 5 ng total RNA using QuantiFast SYBR Green RT-PCR Kit (Qiagen), appropriate primers and run on a LightCycler 480II (Roche). GAPDH was used as the internal control.
Next, to confirm that R-spondin also induces iPAM cells from human ES cells differentiation, HUES1 cells were plated has single cells and differentiated in 15% FBS containing medium with or without Rspo3. qRT-PCR time course analysis for paraxial mesoderm progenitor markers expression was performed (FIG. 10).

Wnt signaling = settings: cited from earlier work

Cc1c[nH]c(-c2cnc(NCCNc3ccc(C#N)cn3)nc2-c2ccc(Cl)cc2Cl)n1 [CHIR99021, reference compound]
efficiency in inducing YFP+ cells compared with Rspo-3 (Msgn1RepV mES cells; after 4 days, 15% FBS medium): as efficient as Rspo-3

C[S+](C)[O-] [DMSO, Dimethyl sulfoxide]
effect on YFP+ cells (Msgn1RepV mES cells; 0.5% DMSO in FBS-containing medium, 4 days in culture): positive effect on iPAM induction; also recorded: increase of YFP+ cells

B1: Dkk1: secreted extracellular Wnt antagonist, inhibitor of canonical Wnt signaling (protein, UniProt O94907 32-266, looked up)
Dickkopf-related protein 1: TLNSVLNSNAIKNLPPPLGGAAGHPGSAVSAAPGILYPGGNKYQTIDNYQPYPCAEDEECGTDEYCASPTRGGDAGVQICLACRKRRKRCMRHAMCCPGNYCKNGICVSSDQNHFRGEIEETITESFGNDHSTLDGYSRRTTLSSKMYHTKGQEGSVCLRSSDCASGLCCARHFWSKICKPVLKEGQVCTKHRRKGSHGLEIFQRCYCGEGLSCRIQKDHHQASNSSRLHTCQRH
effect of supplementation of the medium on YFP+ induction (Msgn1RepV mES cells; 15% FBS medium, 4 days): sharp decrease of YFP+ induction

B2: R-spondin3: secreted protein of the R-spondin family that activates Wnt signalling pathway; recombinant protein obtained commercially (R&D) (protein, UniProt Q9BXY4 22-272, looked up)
R-spondin-3: QNASRGRRQRRMHPNVSQGCQGGCATCSDYNGCLSCKPRLFFALERIGMKQIGVCLSSCPSGYYGTRYPDINKCTKCKADCDTCFNKNFCTKCKSGFYLHLGKCLDNCPEGLEANNHTMECVSIVHCEVSEWNPWSPCTKKGKTCGFKRGTETRVREIIQHPSAKGNLCPPTNETRKCTVQRKKCQKGERGKKGRERKRKKPNKGESKEAIPDSKSLESSKEIPEQRENKQQQKKRKVQDKQKSVSVSTVH
activation of dermal marker Dermo 1 and muscle marker Myf5 (qRT-PCR) (mouse ES cells; 4 days Rspo3 10 ng/mL, FBS15%, then switched medium, harvested next day): Significant activation of these markers
tissue-specific staining of cultures at day 18 (mouse ES cells; day0 to day4 R-spondin3 10 ng/mL, 15% FBS, then differentiation media until day 18): positive for Cartilage (Alcian blue positive nodules), Muscles (Desmin positive fibers) and Endothelium (CD31/PECAM1)
induction of YFP+ cells (Msgn1RepV mES cells; 10 ng/mL, both in FBS based medium and KSR based medium): up to 70%
YFP+ population of the total population (Msgn1RepV mES cells; 10 ng/mL, day 4 of differentiation, 15% FBS medium, flow cytometry): more than 70%
effect on number of YFP+ cells (Msgn1RepV mES cells): significantly increase the number of YFP+ cells
luciferase (BAT-luc) activation, canonical Wnt response (canonical Wnt signaling): strongly activated
luciferase (BAT-luc) activation, canonical Wnt response (canonical Wnt signaling; listed as Rspo3): strongly activates the canonical Wnt response
expression of paraxial mesoderm progenitor markers Brachyury, PDGFRa, Tbx6 and Msgn1 (HUES1 cells): induction of the paraxial mesoderm progenitor markers; also recorded: Strong activation of Msgn1 and Tbx6
potency to activate Wnt signaling versus Rspo1 and 4 (Wnt signaling): more potent

B3: R-spondin2: secreted protein of the R-spondin family that activates Wnt signalling pathway; recombinant protein obtained commercially (R&D) (protein, UniProt Q6UXX9 22-243, looked up)
R-spondin-2: QGNRWRRSKRASYVSNPICKGCLSCSKDNGCSRCQQKLFFFLRREGMRQYGECLHSCPSGYYGHRAPDMNRCARCRIENCDSCFSKDFCTKCKVGFYLHRGRCFDECPDGFAPLEETMECVEGCEVGHWSEWGTCSRNNRTCGFKWGLETRTRQIVKKPVKDTILCPTIAESRRCKMTMRHCPGGKRTPKAKEKRNKKKKRKLIERAQEQHSVFLATDRANQ
effect on number of YFP+ cells (Msgn1RepV mES cells): significantly increase the number of YFP+ cells
potency to activate Wnt signaling versus Rspo1 and 4 (Wnt signaling): more potent
